How the values were obtained:
[1] = molecular target: T1, human PD-L1 (human, UniProt Q9NZQ7 19-290); experiment: Scatchard analysis on cells, 4 h on ice, 3-3000 pM ^111In-PD-L1.3.1, non-specific binding determined with 100 nM unlabeled antibody; 111In-labeled antibody, Scatchard analysis; MDA-MB-231 cells by paragraph 130
T1 construct: whole, on cells; Target presented on human breast cancer cell lines; The quantitative assays (IRF, IC50, Kd) used MDA-MB-231 cells; also called CD274; Programmed Cell Death 1 Ligand 1
T1 sequence (Q9NZQ7 19-290): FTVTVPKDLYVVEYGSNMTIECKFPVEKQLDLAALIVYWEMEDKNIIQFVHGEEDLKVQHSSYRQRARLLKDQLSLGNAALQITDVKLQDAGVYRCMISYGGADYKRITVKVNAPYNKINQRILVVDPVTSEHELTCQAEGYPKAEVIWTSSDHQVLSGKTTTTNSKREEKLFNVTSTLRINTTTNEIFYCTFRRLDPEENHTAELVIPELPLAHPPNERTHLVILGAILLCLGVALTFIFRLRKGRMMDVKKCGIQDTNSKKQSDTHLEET
Protocol: (§1) Cells were cultured to confluency in six-well plates and were incubated for 4 h on ice with increasing concentrations ¹¹¹In-PD-L1.3.1 (3-3000 pM) in 1 ml RPMI1640 containing 0.5% BSA. Non-specific binding was determined by co-incubation with 100 nM PD-L1.3.1. After incubation, cells were washed with PBS and the cell-associated activity was measured in a shielded well-type gamma counter. The specific binding (total binding—nonspecific binding) was plotted against the bound/free ratio. Data were analyzed by linear regression to determine PD-L1 receptor density per cell and to determine the Kd of ¹¹¹In-PD-L1.3.1.

[2] = molecular target: T1, human PD-L1; experiment: saturation binding of ^111In-PD-L1.3.1 on cells, 4 h on ice, called Scatchard analysis in the filing; the cell line is not printed on the sheet (MDA-MB-231 used in the subsequent binding assays)
Protocol: as §1

[3] = molecular target: T1, human PD-L1; experiment: competition on MDA-MB-231 cells, 4 h on ice: unlabeled PD-L1.3.1 (1-1000 pM) against 20 pM ^111In-PD-L1.3.1, gamma counter; unlabeled antibody, competition on MDA-MB-231 cells
Protocol: MDA-MB-231 cells were cultured to confluency in six-well plates. The 50% inhibitory concentration (IC₅ₒ) of PD-L1.3.1 blocking of ¹¹¹In-PD-L1.3.1 binding was determined by incubating the cells for 4 h on ice in 1 ml RPMI1640 0.5% BSA, containing 20 pM ¹¹¹In-PD-L1.3.1 (1 kBq) and increasing concentrations of unlabeled PD-L1.3.1 (1-1000 pM). After incubation, cells were washed with PBS and the cell-associated activity was measured in a gamma counter. The IC₅₀ was defined as the antibody concentration that was required to inhibit binding of the radio labeled antibody by 50%. IC₅₀ values were calculated using GraphPad Prism.

| Binder | Kd [1] | Kd [2] | IC50 [3] |
| --- | --- | --- | --- |
| ^111In-DTPA-PD-L1.3.1 (antibody, V domains shown, ITC-DTPA conjugate chelating ^111In; conjugated residues and chain not stated) VH: EVQLQQSGTELVKPGASVKLSCTTSGFNIQDTYMHWVKQRPEQGLEWIGWIDPANGNTKYDPKFQGKATIIADTSSNTAYLQLRGLTSEDTAVYYCARSGVSTAHFDYWGQGTTLTVSS VL: QIVLSQSPAILSASPGEKVTMTCRASSSVSFMHWYQQKPGSSPKPWIYATSNLASGVPTRFSGSGSGTSYSLTLSRVEAEDAATYYCQQWSSYPRTFGGGTKLEIK | 970 pM | 1000 pM | – |
| PD-L1.3.1 antibody (unlabeled) (antibody, V domains shown, also called unlabeled PD-L1.3.1) VH: EVQLQQSGTELVKPGASVKLSCTTSGFNIQDTYMHWVKQRPEQGLEWIGWIDPANGNTKYDPKFQGKATIIADTSSNTAYLQLRGLTSEDTAVYYCARSGVSTAHFDYWGQGTTLTVSS VL: QIVLSQSPAILSASPGEKVTMTCRASSSVSFMHWYQQKPGSSPKPWIYATSNLASGVPTRFSGSGSGTSYSLTLSRVEAEDAATYYCQQWSSYPRTFGGGTKLEIK | – | – | 150 pM |

Source: patent publication US20180071413A1 (INSERM INSTITUT NATIONAL DE LA SANTE ET DE LA RECHERCHE …, published 2018)
